In publication PMC7954794 (2021):

B1: S. cerevisiae Abp1 (full length; SH3 domain 535-592 mutated) / Hua2 (parent complex)
chain 1: MALEPIDYTTHSREIDAEYLKIVRGSDPDTTWLIISPNAKKEYEPESTGSSFHDFLQLFDETKVQYGLARVSPPGSDVEKIIIIGWCPDSAPLKTRASFAANFAAVANNLFKGYHVQVTARDEDDLDENELLMKISNAAGARYSIQTSSKQQGKASTPPVKKSFTPSKSPAPVSKKEPVKTPSPAPAAKISSRVNDNNDDDDWNEPELKERDFDQAPLKPNQSSYKPIGKIDLQKVIAEEKAKEDPRLVQKPTAAGSKIDPSSDIANLKNESKLKRDSEFNSFLGTTKPPSMTESSLKNDDDKVIKGFRNEKSPAQLWAERKAKQNSGNAETKAEAPKPEVPEDEPEGEPDVKDLKSKFEGLAASEKEEEEMENKFAPPPKKSEPTIISPKPFSKPQEPVKAEEAEQPKTDYKKIGNPLPGMHIEADNEEEPEENDDDWDDDEDEAAQPPLPSRNVASGAPVQKEEPEQEEIAPSLPSRNSIPAPKQEEAPEQAPEEEIEEEAEEAAPQLPSRSSAAPPPPPRRATPEKKPKENPWATAEYDYDAAEDNELTFVENDKIINIEFVDDDWWLGELEKDGSKGLFPSNYVSLGN
chain 2: MQQTKFGKMYLDHDSVVEYSEDEIVEADRITLGYKKRLSMIENQMRHLLEDFSLDVQQIEPILADLQKYYDAFLQLLQKRNKSLQCKRSTHQPVPSPMNSQTSTNAKVNLSGKLMKFQLNSVQKFDEENILRILQNKIEFEHYFQIDKGKKQKVLLLAVYQCLNGPTRLHKVLNIEGIIHNNSIRTILGKQVSSSKWTVFLYDVKLVLLAHRQDVPNLETSKMIVRYGDLFPCALYFKDHTAY

Variants of: B1
Experiment: DHFR protein-fragment complementation in yeast (Abp1-DHFR F[1,2] x partner-DHFR F[3]), deep mutational scanning, second methotrexate selection vs reference; S. cerevisiae, DHFR-PCA selection in liquid with methotrexate at 30 C, two 72 h selections (the score uses the second); reference = the pre-selection culture

Variant | screen value
chain 1 MALEPIDYTTHSREIDAEYLKIVRGSDPDTTWLIISPNAKKEYEPESTGSSFHDFLQLFDETKVQYGLARVSPPGSDVEKIIIIGWCPDSAPLKTRASFAANFAAVANNLFKGYHVQVTARDEDDLDENELLMKISNAAGARYSIQTSSKQQGKASTPPVKKSFTPSKSPAPVSKKEPVKTPSPAPAAKISSRVNDNNDDDDWNEPELKERDFDQAPLKPNQSSYKPIGKIDLQKVIAEEKAKEDPRLVQKPTAAGSKIDPSSDIANLKNESKLKRDSEFNSFLGTTKPPSMTESSLKNDDDKVIKGFRNEKSPAQLWAERKAKQNSGNAETKAEAPKPEVPEDEPEGEPDVKDLKSKFEGLAASEKEEEEMENKFAPPPKKSEPTIISPKPFSKPQEPVKAEEAEQPKTDYKKIGNPLPGMHIEADNEEEPEENDDDWDDDEDEAAQPPLPSRNVASGAPVQKEEPEQEEIAPSLPSRNSIPAPKQEEAPEQAPEEEIEEEAEEAAPQLPSRSSAAPPPPPRRATPEKKPKENPWATAEYDYDAAEDNELTFVENDEIINIEFVDDDWWLGELEKDGSKGLFPSNYVSLGN [chain 1 K558E] | -0.942 DMS score: mean over two replicates of log2(f_test/f_ref + 0.5)/ln 2, minus the synonymous-codon median (not a log2 …
chain 1 MALEPIDYTTHSREIDAEYLKIVRGSDPDTTWLIISPNAKKEYEPESTGSSFHDFLQLFDETKVQYGLARVSPPGSDVEKIIIIGWCPDSAPLKTRASFAANFAAVANNLFKGYHVQVTARDEDDLDENELLMKISNAAGARYSIQTSSKQQGKASTPPVKKSFTPSKSPAPVSKKEPVKTPSPAPAAKISSRVNDNNDDDDWNEPELKERDFDQAPLKPNQSSYKPIGKIDLQKVIAEEKAKEDPRLVQKPTAAGSKIDPSSDIANLKNESKLKRDSEFNSFLGTTKPPSMTESSLKNDDDKVIKGFRNEKSPAQLWAERKAKQNSGNAETKAEAPKPEVPEDEPEGEPDVKDLKSKFEGLAASEKEEEEMENKFAPPPKKSEPTIISPKPFSKPQEPVKAEEAEQPKTDYKKIGNPLPGMHIEADNEEEPEENDDDWDDDEDEAAQPPLPSRNVASGAPVQKEEPEQEEIAPSLPSRNSIPAPKQEEAPEQAPEEEIEEEAEEAAPQLPSRSSAAPPPPPRRATPEKKPKENPWATAEYDYKAAEDNELTFVENDKIINIEFVDDDWWLGELEKDGSKGLFPSNYVSLGN [chain 1 D544K] | 1.68 DMS score: mean over two replicates of log2(f_test/f_ref + 0.5)/ln 2, minus the synonymous-codon median (not a log2 …

Second part, the variant after the results:

screen value | Variant
0.632 DMS score: mean over two replicates of log2(f_test/f_ref + 0.5)/ln 2, minus the synonymous-codon median (not a log2 … | chain 1 MALEPIDYTTHSREIDAEYLKIVRGSDPDTTWLIISPNAKKEYEPESTGSSFHDFLQLFDETKVQYGLARVSPPGSDVEKIIIIGWCPDSAPLKTRASFAANFAAVANNLFKGYHVQVTARDEDDLDENELLMKISNAAGARYSIQTSSKQQGKASTPPVKKSFTPSKSPAPVSKKEPVKTPSPAPAAKISSRVNDNNDDDDWNEPELKERDFDQAPLKPNQSSYKPIGKIDLQKVIAEEKAKEDPRLVQKPTAAGSKIDPSSDIANLKNESKLKRDSEFNSFLGTTKPPSMTESSLKNDDDKVIKGFRNEKSPAQLWAERKAKQNSGNAETKAEAPKPEVPEDEPEGEPDVKDLKSKFEGLAASEKEEEEMENKFAPPPKKSEPTIISPKPFSKPQEPVKAEEAEQPKTDYKKIGNPLPGMHIEADNEEEPEENDDDWDDDEDEAAQPPLPSRNVASGAPVQKEEPEQEEIAPSLPSRNSIPAPKQEEAPEQAPEEEIEEEAEEAAPQLPSRSSAAPPPPPRRATPEKKPKENPWATAEYDYFAAEDNELTFVENDKIINIEFVDDDWWLGELEKDGSKGLFPSNYVSLGN [chain 1 D544F]
0.394 DMS score: mean over two replicates of log2(f_test/f_ref + 0.5)/ln 2, minus the synonymous-codon median (not a log2 … | chain 1 MALEPIDYTTHSREIDAEYLKIVRGSDPDTTWLIISPNAKKEYEPESTGSSFHDFLQLFDETKVQYGLARVSPPGSDVEKIIIIGWCPDSAPLKTRASFAANFAAVANNLFKGYHVQVTARDEDDLDENELLMKISNAAGARYSIQTSSKQQGKASTPPVKKSFTPSKSPAPVSKKEPVKTPSPAPAAKISSRVNDNNDDDDWNEPELKERDFDQAPLKPNQSSYKPIGKIDLQKVIAEEKAKEDPRLVQKPTAAGSKIDPSSDIANLKNESKLKRDSEFNSFLGTTKPPSMTESSLKNDDDKVIKGFRNEKSPAQLWAERKAKQNSGNAETKAEAPKPEVPEDEPEGEPDVKDLKSKFEGLAASEKEEEEMENKFAPPPKKSEPTIISPKPFSKPQEPVKAEEAEQPKTDYKKIGNPLPGMHIEADNEEEPEENDDDWDDDEDEAAQPPLPSRNVASGAPVQKEEPEQEEIAPSLPSRNSIPAPKQEEAPEQAPEEEIEEEAEEAAPQLPSRSSAAPPPPPRRATPEKKPKENPWATAEYDYDAAEDNELTFVENDKIINIEFVDDDWWLGELEKDGSKGLFPSNYVSLGG [chain 1 N592G]
-2.97 DMS score: mean over two replicates of log2(f_test/f_ref + 0.5)/ln 2, minus the synonymous-codon median (not a log2 … | chain 1 MALEPIDYTTHSREIDAEYLKIVRGSDPDTTWLIISPNAKKEYEPESTGSSFHDFLQLFDETKVQYGLARVSPPGSDVEKIIIIGWCPDSAPLKTRASFAANFAAVANNLFKGYHVQVTARDEDDLDENELLMKISNAAGARYSIQTSSKQQGKASTPPVKKSFTPSKSPAPVSKKEPVKTPSPAPAAKISSRVNDNNDDDDWNEPELKERDFDQAPLKPNQSSYKPIGKIDLQKVIAEEKAKEDPRLVQKPTAAGSKIDPSSDIANLKNESKLKRDSEFNSFLGTTKPPSMTESSLKNDDDKVIKGFRNEKSPAQLWAERKAKQNSGNAETKAEAPKPEVPEDEPEGEPDVKDLKSKFEGLAASEKEEEEMENKFAPPPKKSEPTIISPKPFSKPQEPVKAEEAEQPKTDYKKIGNPLPGMHIEADNEEEPEENDDDWDDDEDEAAQPPLPSRNVASGAPVQKEEPEQEEIAPSLPSRNSIPAPKQEEAPEQAPEEEIEEEAEEAAPQLPSRSSAAPPPPPRRATPEKKPKENPWATAEYDYDAAEDNELTFVENDKIINIEFVDDSWWLGELEKDGSKGLFPSNYVSLGN [chain 1 D568S]
